Reference: patent publication US20190041402A1 (GOVERNING COUNCIL OF THE UNIVERSITY OF TORONTO, published 2019)

B1: sb106 IgG (antibody, V domains shown)
VH: EVQLVESGGGLVQPGGSLRLSCAASGFNISYYSIHWVRQAPGKGLEWVAYISPSYGYTSYADSVKGRFTISADTSKNTAYLQMNSLRAEDTAVYYCARYYVYASHGWAGYGMDYWGQGTLVTVSS
VL: DIQMTQSPSSLSASVGDRVTITCRASQSVSSAVAWYQQKPGKAPKLLIYSASSLYSGVPSRFSGSRSGTDFTLTISSLQPEDFATYYCQQAGYSPITFGQGTKVEIKR
notes: also called sb106 (48) full length IgG
B2: anti-αKlotho Fab clone 4811 (Fab, V domains shown)
VH: EVQLVESGGGLVQPGGSLRLSCAASGFNLYYSYMHWVRQAPGKGLEWVASIYSSSSYTSYADSVKGRFTISADTSKNTAYLQMNSLRAEDTAVYYCARSPSWWVSYHSALDYWGQGTLVTVSS
VL: DIQMTQSPSSLSASVGDRVTITCRASQSVSSAVAWYQQKPGKAPKLLIYSASSLYSGVPSRFSGSRSGTDFTLTISSLQPEDFATYYCQQGYALFTFGQGTKVEIKR
notes: Fab (also as Fab-phage); FLAG tag on light chain; also called sb180

Key:
rat αKlotho (endogenous) = biological target: T1, rat αKlotho (endogenous) (rat, UniProt Q9Z2Y9 35-983); assay: immunohistochemistry, unfixed frozen rat parathyroid tissue
T1 sequence (looked up): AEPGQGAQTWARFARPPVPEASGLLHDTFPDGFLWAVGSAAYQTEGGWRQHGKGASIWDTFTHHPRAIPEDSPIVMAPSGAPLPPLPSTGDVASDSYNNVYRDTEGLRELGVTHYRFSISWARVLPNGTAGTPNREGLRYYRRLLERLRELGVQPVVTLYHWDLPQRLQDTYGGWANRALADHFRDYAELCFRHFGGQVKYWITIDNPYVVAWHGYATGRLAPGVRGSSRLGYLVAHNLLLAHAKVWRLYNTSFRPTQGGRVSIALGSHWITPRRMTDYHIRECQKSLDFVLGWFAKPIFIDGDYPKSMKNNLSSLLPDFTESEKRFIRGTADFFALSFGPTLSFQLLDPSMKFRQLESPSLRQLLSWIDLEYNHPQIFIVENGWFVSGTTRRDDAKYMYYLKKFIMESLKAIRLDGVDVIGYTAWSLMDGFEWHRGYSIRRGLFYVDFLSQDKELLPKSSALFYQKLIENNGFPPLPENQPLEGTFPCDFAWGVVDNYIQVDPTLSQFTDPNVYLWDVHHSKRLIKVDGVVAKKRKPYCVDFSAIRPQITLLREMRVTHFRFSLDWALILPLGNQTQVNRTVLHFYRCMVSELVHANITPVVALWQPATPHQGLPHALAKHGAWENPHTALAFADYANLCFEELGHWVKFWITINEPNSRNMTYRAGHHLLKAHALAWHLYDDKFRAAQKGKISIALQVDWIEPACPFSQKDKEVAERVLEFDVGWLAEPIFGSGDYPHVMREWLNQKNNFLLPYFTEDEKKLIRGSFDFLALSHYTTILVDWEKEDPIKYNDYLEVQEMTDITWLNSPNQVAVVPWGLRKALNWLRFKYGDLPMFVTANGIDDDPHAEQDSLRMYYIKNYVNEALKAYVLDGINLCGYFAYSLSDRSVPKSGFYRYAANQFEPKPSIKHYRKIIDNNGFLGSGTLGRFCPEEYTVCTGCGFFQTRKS
Protocol: For labeling, sections were blocked (PBS, 1.5% BSA, 10% goat serum; 40 min) and incubated with the primary antibody sb106 ([…] in blocking solution; 4° C. overnight). After washing (PBS), sections were incubated with the Alexa 546 goat anti-human IgG (1:800 dilution, Invitrogen) for 1 hour at room temperature. After additional washes with PBS, the sections were fixed with 4% paraformaldehyde in PBS, washed with PBS, and mounted and visualized with a Zeiss LSM510 microscope.
Sb106 was highly reactive against αKlotho under native conditions. Immunoblot signals under denaturing conditions against mouse, rat, and human kidney tissue were weak, but in samples from transgenic mice overexpressing αKlotho [79], sb106-Fab detected a band corresponding to the full-length extracellular domain of αKlotho (FIG. 2A). In cultured cells, sb106-Fab was not able to detect αKlotho in immunoblots under denaturing conditions with lysates from NRK cells expressing native αKlotho but it was able to detect overexpressed antigen in cell lysates from HEK293 cells transfected with αKlotho (FIG. 2B). […] Cells were then incubated with sb106-Fab (5 μg/ml in 1% BSA in PBS) for 1 hr. […]

[1] = biological target: T2, extracellular domain (ECD) of human αKlotho, amino acids E34-S981 with C-terminal 6-His tag (R&D Systems … (human, UniProt Q9UEF7 34-981)); assay: SPR, Fab captured by anti-H+L antibody, αKlotho injected
T2 construct: range 34-981; also called αKlotho (aa34-981); target antigen
T2 sequence: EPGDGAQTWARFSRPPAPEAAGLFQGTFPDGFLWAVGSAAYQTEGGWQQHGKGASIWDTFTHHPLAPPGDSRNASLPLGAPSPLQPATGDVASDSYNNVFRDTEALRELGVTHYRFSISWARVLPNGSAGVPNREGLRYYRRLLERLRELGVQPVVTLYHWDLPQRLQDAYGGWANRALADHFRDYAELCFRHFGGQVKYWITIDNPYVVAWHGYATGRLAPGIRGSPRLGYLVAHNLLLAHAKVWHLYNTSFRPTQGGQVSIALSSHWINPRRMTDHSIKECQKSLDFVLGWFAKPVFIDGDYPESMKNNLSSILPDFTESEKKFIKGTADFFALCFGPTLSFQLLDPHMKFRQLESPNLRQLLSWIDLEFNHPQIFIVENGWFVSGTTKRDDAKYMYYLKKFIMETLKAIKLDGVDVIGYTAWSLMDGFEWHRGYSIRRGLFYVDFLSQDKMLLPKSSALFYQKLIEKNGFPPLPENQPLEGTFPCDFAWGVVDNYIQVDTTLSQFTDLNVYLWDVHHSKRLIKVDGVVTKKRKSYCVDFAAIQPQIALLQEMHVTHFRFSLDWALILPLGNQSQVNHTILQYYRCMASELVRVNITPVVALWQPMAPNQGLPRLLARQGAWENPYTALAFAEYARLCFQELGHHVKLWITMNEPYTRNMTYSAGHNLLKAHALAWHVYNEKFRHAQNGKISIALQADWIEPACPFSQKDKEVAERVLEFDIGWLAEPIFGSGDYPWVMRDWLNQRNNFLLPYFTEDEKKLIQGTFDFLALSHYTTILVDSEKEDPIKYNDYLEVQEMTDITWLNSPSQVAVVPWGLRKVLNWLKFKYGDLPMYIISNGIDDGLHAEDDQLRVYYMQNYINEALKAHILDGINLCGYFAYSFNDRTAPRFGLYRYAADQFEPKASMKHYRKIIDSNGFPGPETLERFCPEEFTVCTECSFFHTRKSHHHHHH
Protocol: (§1) Affinity estimates for each of the antibodies were determined by surface plasmon resonance (SPR). Fabs were immobilized using an anti-H+L antibody and serial dilutions of αKlotho were injected.

[2] = biological target: T2, extracellular domain (ECD) of human …; assay: SPR, Fab captured by anti-H+L IgG, αKlotho injected at 50 to 6.25 ug/ml, Langmuir fit [continued]
Protocol: as §1

[3] = biological target: T3, soluble human αKlotho (recombinant) (human, UniProt Q9UEF7 34-981); assay: SPR (ProteOn XPR36), Fab captured by anti-IgG(H+L), human αKlotho injected in serial dilutions, Langmuir fit [continued) B.]
T3 construct: also called Hu aKL; recombinant human αKlotho
T3 sequence (looked up): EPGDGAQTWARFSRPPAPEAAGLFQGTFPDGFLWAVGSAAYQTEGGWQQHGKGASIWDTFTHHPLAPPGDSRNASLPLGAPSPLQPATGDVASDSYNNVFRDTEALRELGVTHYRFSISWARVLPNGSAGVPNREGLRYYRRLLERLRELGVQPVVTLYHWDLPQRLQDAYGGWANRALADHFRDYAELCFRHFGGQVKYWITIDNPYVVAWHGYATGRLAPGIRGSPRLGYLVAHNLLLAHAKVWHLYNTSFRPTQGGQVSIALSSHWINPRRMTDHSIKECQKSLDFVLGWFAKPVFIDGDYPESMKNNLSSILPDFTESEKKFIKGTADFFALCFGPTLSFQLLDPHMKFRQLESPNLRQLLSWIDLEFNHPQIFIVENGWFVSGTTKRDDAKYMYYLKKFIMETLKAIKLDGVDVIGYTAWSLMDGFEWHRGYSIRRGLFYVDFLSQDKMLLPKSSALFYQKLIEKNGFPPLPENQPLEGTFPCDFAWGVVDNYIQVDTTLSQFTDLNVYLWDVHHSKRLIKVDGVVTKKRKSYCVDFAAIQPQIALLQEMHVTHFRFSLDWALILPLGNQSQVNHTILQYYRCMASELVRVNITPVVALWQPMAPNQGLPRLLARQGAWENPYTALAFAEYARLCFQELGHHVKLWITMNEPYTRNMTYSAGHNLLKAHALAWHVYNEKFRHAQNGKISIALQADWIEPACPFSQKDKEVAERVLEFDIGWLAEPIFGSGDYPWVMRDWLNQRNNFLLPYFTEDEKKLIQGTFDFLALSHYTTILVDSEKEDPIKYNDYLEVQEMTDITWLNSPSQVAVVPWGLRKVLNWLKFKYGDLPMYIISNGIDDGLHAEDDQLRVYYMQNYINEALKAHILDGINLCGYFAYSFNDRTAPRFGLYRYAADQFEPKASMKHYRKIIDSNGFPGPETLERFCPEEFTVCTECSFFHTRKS
Protocol: (§2) Estimated affinities against human and mouse antigen for select αKlotho Fabs were obtained by surface plasmon resonance on a ProteOn XPR36 (FIG. 17). Fabs were captured using an anti-IgG(H+L) antibody and serial dilutions of αKlotho were injected. Binding curves were fitted to the Langmuir model. (A) Determined Kon, Koff and KD values. (B) and (C) Binding curves for human and mouse antigen respectively.

mouse αKlotho [4] = biological target: T4, mouse αKlotho (mouse, UniProt O35082 35-982); assay: SPR (ProteOn XPR36), Fab captured by anti-IgG(H+L), mouse αKlotho injected in serial dilutions, Langmuir fit [continued) C.]
T4 construct: also called Mu aKL
T4 sequence (looked up): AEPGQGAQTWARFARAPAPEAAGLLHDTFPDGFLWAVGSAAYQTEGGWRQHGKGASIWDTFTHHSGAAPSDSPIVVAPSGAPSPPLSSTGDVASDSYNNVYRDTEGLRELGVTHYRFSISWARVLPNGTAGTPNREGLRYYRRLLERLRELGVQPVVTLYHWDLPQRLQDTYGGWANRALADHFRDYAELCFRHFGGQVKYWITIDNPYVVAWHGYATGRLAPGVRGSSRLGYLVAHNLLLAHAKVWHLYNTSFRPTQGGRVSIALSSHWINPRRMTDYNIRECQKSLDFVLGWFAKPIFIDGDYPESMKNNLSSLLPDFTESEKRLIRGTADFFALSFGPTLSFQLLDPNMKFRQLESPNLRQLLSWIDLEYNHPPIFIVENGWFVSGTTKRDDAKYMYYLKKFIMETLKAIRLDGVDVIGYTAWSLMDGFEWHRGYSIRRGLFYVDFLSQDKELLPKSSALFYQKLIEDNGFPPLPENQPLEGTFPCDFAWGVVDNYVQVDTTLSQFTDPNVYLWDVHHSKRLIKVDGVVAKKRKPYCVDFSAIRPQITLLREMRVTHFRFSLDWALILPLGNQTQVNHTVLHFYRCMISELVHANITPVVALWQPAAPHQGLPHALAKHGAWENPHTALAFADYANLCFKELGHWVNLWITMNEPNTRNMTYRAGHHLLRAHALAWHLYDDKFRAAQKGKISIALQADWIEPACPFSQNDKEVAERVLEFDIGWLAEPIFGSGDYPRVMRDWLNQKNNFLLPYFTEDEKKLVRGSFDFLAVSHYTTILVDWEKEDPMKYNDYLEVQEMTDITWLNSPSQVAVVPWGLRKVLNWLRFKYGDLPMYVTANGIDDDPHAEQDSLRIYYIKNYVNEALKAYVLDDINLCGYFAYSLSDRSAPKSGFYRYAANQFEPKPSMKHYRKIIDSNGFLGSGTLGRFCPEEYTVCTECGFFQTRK
Protocol: as §2

mouse αKlotho [5] = biological target: T4, mouse αKlotho; assay: SPR (ProteOn XPR36), Fab captured by anti-IgG(H+L), mouse αKlotho injected in serial dilutions, Langmuir fit
Protocol: as §2

[6] = biological target: T3, soluble human αKlotho (recombinant); assay: SPR (ProteOn XPR36), Fab captured by anti-IgG(H+L), human αKlotho injected in serial dilutions, Langmuir fit
Protocol: as §2

Row | Binder | binding result (rat αKlotho (endogenous)) | Kd [1] [nM] | Kd [2] [nM] | koff [2] [s⁻¹] | kon [2] [M⁻¹ s⁻¹] | Kd [3] [nM] | koff [3] [s⁻¹] | kon [3] [M⁻¹ s⁻¹] | Kd (mouse αKlotho [4]) [nM] | koff (mouse αKlotho [4]) [s⁻¹] | kon (mouse αKlotho [4]) [M⁻¹ s⁻¹] | Kd (mouse αKlotho [5]) [nM] | koff (mouse αKlotho [5]) [s⁻¹] | kon (mouse αKlotho [5]) [M⁻¹ s⁻¹] | Kd [6] [nM] | koff [6] [s⁻¹] | kon [6] [M⁻¹ s⁻¹]
1 | B1 | binds |  |  |  |  |  |  |  |  |  |  |  |  |  |  |  | 
2 | B2 |  | 2.3 | 1.13 | 0.000609 | 537000 | 1.48 | 0.000516 | 349000 | 10.3 | 0.00276 | 268000 | 19.9 | 0.00545 | 273000 | 1.48 | 0.000516 | 349000
